From publication doi:10.1101/671792 (bioRxiv, 2019)

B1: p62/SQSTM1 PB1 domain, residues 1-102 (domain or fragment)
chain: MASLTVKAYLLGKEDAAREIRRFSFCCSPEPEAEAEAAAGPGPCERLLSRVAALFPALRPGGFQAHYRDEDGDLVAFSSDEELTMAMSYVKDDIFRIYIKEK
B2: TFG-1 (Trk-fused gene 1) PB1 domain, residues 1-95 (domain or fragment)
chain: MNGQLDLSGKLIIKAQLGEDIRRIPIHNEDITYDELVLMMQRVFRGKLLSNDEVTIKYKDEDGDLITIFDSSDLSFAIQCSRILKLTLFVNGQPR
B3: MBP-tagged wild-type AtNBR1-PB1 (domain or fragment)
chain: MESTANALVVKVSYGGVLRRFRVPVKANGQLDLEMAGLKEKIAALFNLSADAELSLTYSDEDGDVVALVDDNDLFDVTNQRLKFLKINVNAGVST
B4: Arabidopsis thaliana NBR1 PB1 domain, residues 1-95 (domain or fragment)
chain: MESTANALVVKVSYGGVLRRFRVPVKANGQLDLEMAGLKEKIAALFNLSADAELSLTYSDEDGDVVALVDDNDLFDVTNQRLKFLKINVNAGVST

Columns and labels:
[1] = target: the molecule itself; experiment: sedimentation
[2] = target: B4; experiment: pull-down

Binder | binding result [1] | binding result [2]
B1 | binds | 
B2 | binds | 
B3 |  | binds
B4 | binds | 
